Publication PMC6876572

Columns and labels:
[1] = molecular target: Cof1-decorated (Cofilin-saturated) actin filament (rabbit | S. cerevisiae) (UniProt P68135); assay: single-molecule two-colour TIRF imaging; actin filaments (10% Alexa-488, 0.5% biotinylated) anchored along their lengths on streptavidin-coated coverslips, exposed to a mixture of Cy5-Srv2ΔCARP (8.3 or 83 nM hexamers) and 1 µM yeast Cof1 in TIRF buffer (10 mM imidazole pH 7.4, 50 mM KCl, 1 mM MgCl2, 1 mM EGTA, 0.2 mM ATP, 10 mM DTT); dwell and waiting times at the pointed end; kon corrected for unlabeled molecules
[2] = molecular target: Cof1-decorated (Cofilin-saturated) actin filament (rabbit | S. cerevisiae) (UniProt P68135)

average dwell time at the pointed end [1] | fractional occupancy of filament ends at 8.3 nM (calculated from kon and koff) [1] | fractional occupancy of filament ends at 83 nM (calculated from kon and koff) [1] | koff [1] | kon [1] | KM of the rate of pointed-end depolymerization against N-Srv2 concentration at 1 µM Cof1 (mf-TIRF, fit to the Michaelis-Menten equation) [2] | Substance
2.2 s | 16% | 66% | 0.45 s⁻¹ | 1.1e+07 M⁻¹ s⁻¹ | – | Cy5-maleimide-labeled Srv2ΔCARP (S. cerevisiae Srv2/CAP lacking the CARP domain) (from UniProt P17555 1-526) (domain or fragment)
– | – | – | – | – | 0.05 µM | N-Srv2 (N-terminal half of S. cerevisiae Srv2/CAP) (domain or fragment)
